T1: RESTV GP (RESTV, UniProt Q66799 34-638)
T1 sequence: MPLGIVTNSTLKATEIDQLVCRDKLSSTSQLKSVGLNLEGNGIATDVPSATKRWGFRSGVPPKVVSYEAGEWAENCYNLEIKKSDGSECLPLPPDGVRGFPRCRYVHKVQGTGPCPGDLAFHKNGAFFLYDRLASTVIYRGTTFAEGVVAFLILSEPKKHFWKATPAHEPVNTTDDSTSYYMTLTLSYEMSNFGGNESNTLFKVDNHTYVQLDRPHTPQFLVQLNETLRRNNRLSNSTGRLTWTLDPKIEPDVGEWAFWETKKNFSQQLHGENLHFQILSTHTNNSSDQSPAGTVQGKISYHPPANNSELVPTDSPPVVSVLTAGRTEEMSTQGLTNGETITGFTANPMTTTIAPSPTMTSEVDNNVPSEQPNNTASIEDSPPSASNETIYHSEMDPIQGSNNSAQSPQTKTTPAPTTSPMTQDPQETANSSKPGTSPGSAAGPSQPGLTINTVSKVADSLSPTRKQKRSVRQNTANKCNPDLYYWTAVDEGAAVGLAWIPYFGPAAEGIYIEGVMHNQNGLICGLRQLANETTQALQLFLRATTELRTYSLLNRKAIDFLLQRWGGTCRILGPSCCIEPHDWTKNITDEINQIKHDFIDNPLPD

T2: SUDV GP (Sudan ebolavirus (SUDV), UniProt Q7T9D9 33-637)
T2 construct: also called Sudan ebolavirus GP
T2 sequence: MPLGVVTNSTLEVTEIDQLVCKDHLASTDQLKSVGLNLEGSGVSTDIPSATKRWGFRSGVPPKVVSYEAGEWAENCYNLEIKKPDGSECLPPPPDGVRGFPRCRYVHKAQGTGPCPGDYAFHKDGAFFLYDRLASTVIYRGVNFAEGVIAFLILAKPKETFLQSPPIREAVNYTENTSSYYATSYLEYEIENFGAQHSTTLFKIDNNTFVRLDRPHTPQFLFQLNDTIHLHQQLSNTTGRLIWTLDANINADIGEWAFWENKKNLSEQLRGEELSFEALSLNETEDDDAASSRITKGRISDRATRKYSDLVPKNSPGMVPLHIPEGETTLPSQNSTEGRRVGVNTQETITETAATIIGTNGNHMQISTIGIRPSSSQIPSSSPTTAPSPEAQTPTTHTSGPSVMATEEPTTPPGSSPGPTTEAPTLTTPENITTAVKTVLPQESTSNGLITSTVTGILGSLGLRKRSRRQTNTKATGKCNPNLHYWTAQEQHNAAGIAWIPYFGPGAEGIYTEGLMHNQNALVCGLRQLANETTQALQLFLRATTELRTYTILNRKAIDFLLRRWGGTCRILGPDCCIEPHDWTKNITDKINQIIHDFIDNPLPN

T3: EBOV GP on EBOV-eGFP-Mayinga authentic virus (Ebola virus (EBOV), Mayinga, UniProt Q05320 33-676)
T3 sequence: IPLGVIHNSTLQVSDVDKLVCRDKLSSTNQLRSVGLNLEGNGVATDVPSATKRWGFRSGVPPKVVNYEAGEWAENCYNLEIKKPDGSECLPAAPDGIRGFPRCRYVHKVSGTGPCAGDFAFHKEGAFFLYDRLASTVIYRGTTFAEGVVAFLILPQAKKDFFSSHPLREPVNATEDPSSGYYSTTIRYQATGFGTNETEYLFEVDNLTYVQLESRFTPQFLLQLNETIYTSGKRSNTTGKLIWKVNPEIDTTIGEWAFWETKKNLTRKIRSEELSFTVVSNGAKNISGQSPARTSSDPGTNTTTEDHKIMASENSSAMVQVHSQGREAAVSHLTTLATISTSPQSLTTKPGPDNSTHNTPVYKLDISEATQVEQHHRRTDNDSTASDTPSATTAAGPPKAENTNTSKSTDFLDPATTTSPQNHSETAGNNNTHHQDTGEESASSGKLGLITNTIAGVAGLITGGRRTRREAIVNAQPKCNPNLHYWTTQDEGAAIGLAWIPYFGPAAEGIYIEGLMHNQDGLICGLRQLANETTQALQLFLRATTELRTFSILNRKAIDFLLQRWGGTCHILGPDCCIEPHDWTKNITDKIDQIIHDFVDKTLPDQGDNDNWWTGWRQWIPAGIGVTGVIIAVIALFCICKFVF

B1: monoclonal antibody 2G1 (antibody, V domains shown)
VH: EVQLVESGGGLVKRGGSLRLSCVVSGYTFGGYSMHWVRQAPGKGLEWVSGISSSSYYKYYADSVKGRFTISRDNAKNSLYLQMNSLRAEDTAVYYCARDMGYCSGGSCPNFDFWGQGTTVTVSS
VL: DIQMTQSPSSLSASVGDRVTITCRTSQSISNYLNWYQQIPGKAPKLLISTASNLHSGVSSRFSGSGSGTHFTLTISSLQPEDFATYYCQQSYSTPSFGQGTKVEIKR
notes: also called 2G1-WT; wild-type 2G1
B2: MIL77-1 (antibody, V domains shown)
VH: EVALEESGGGLMQPGGSMKLSCVASGFTFSNYWMNWVRQSPEKGLEWVAEIRLKSNNYATHYAESVKGRFTISRDDSKRSVYLQMNTLRAEDTGIYYCTRGNGNYRAMDYWGQGTSVTVSS
VL: DIQMTQSPASLSVSVGETVSITCRASENIYSSLAWYQQKQGKSPQLLVYSATILADGVPSRFSGSGSGTQYSLKINSLQSEDFGTYYCQHFWGTPYTFGGGTKLEIKR

Assays:
RESTV GP = molecular target: T1, RESTV GP; test: ELISA, purified antibody on coated GP (1 µg/mL)
SUDV GP = molecular target: T2, SUDV GP; test: ELISA, purified antibody on coated GP (1 µg/mL)
sGP = molecular target: T4, sGP (Ebola virus (EBOV), UniProt P60170 33-324); test: ELISA on coated truncated GP
T4 construct: also called secreted glycoprotein

[1] = molecular target: T3, EBOV GP on EBOV-eGFP-Mayinga authentic …; test: cell-based or functional assay

Binder | EC50 (RESTV GP) | EC50 (SUDV GP) | binding result (sGP) | IC50, EBOV-eGFP-Mayinga authentic virus neutralization test [1]
B1 | 0.026 µg/mL | 4.8 ng/mL | no binding | 
B2 |  |  |  | 3.12 µg/mL

— patent US20240254201A1 (ACADEMY OF MILITARY MEDICAL SCIENCE PLA, published 2024)
